For assay [1], the target named is T1, human ActRIIA (human, UniProt P27037 20-135, limits assumed).
T1 construct: antigen in MSD-SET; also called ACVR2A; ActR2A
The assay can be described thus: MSD-SET.

For assay [2], the target named is T1, human ActRIIA. Briefly: MSD-SET. The source holds these as a separate data set.
Assay [3] has as its target T2, human ActRIIB (human, UniProt Q13705 19-137, limits assumed).
T2 construct: antigen in MSD-SET; also called ACVR2B; ActR2B
T2 sequence: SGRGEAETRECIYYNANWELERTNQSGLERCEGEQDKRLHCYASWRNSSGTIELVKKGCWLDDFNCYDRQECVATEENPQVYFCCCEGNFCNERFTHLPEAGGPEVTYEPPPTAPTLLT
Briefly: MSD-SET.

In assay [4] the target is T1, human ActRIIA. Briefly: MSD-SET. The source holds these as a separate data set.
For assay [5], the target named is T2, human ActRIIB. The assay can be described thus: MSD-SET. The source holds these as a separate data set.
Assay [6] has as its target T3, ActRIIA and ActRIIB (on TGFB/SMAD SBE Reporter HEK293 cells) (human). The assay can be described thus: cell-based or functional assay.
The target in assay [7] is T3, ActRIIA and ActRIIB (on TGFB/SMAD SBE …). Briefly: cell-based or functional assay. This is another data set of the same source.
For assay [8], the target named is T1, human ActRIIA. Briefly: MSD-SET. The source holds these as a separate data set.
Assay [9] deals with T3, ActRIIA and ActRIIB (on TGFB/SMAD SBE …). The assay can be described thus: cell-based or functional assay. This is another data set of the same source.
The target in assay [10] is T1, human ActRIIA. The assay can be described thus: MSD-SET. The source holds these as a separate data set.
In assay [11] the target is T2, human ActRIIB. The assay can be described thus: MSD-SET. This is another data set of the same source.
Assay [12] addresses T1, human ActRIIA. The assay can be described thus: MSD-SET. This is another data set of the same source.
The target of assay [13] is T1, human ActRIIA. The assay can be described thus: MSD-SET, preliminary.
For assay [14], the target named is T2, human ActRIIB. Briefly: MSD-SET, preliminary.
Assay [15] deals with T2, human ActRIIB. The assay can be described thus: MSD-SET. The source holds these as a separate data set.

What is called Kd is a measure of binding affinity in units of concentration. Low readings indicate tighter binding, high ones weaker binding.

Residue numbers refer to the chain shown, from its start. Names may count otherwise. Where two headings read alike, the source gives them in different places.

T1 sequence (P27037 20-135 limits assumed): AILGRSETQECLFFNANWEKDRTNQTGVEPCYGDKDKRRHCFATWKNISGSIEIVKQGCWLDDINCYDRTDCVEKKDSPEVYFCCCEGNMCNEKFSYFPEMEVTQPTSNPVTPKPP

B1: Antibody Biiramooscht (antibody, V domains shown)
VH: QVQLVQSGAEVKKPGASVKVSCKASGYTFTSSYINWVRQAPGQGLEWMGTINPVSGSTSYAQKFQGRVTMTRDTSISTAYMELSRLRSDDTAVYYCARGGWFDYWGQGTLVTVSS
VL: QSALTQPASVSGSPGQSITISCTGTSSDVGSYNYVNWYQQHPGKAPKLMIYGVSKRESGVSNRFSGSKSGNTASLTISGLQAEDEADYYCGTFAGGAYYGVFGGGTKLTVL
notes: full-length IgG
Turning to B1, in the assay with human ActRIIA [1], the “Fold Difference to bimagrumab” value worked out at 6.4 fold and the Kd stood at 28 pM. Further, in the assay with human ActRIIA [2], the Kd was 28 pM. In the assay with human ActRIIB [3], binding was put at a Kd of 5 pM. In the assay with human ActRIIA [4], this molecule came in with a Kd of 28 pM. The same molecule had a Kd with human ActRIIB [5] of 5 pM. In assay [6], this molecule registered an IC50, Activin SMAD RGA of 161 pM; an IC50, Myostatin SMAD RGA of 222 pM; an IC50 [nM] (assay not given) of 0.086 nM; an IC50 fold difference to bimagrumab (assay not given) of 6.02 fold. Also, in assay [6], the IC90, Activin SMAD RGA worked out at 1580 pM; the IC90, Myostatin SMAD RGA was 2780 pM; the IC90 [nM] (assay not given) came out at 1.16 nM; the IC90 fold difference to bimagrumab (assay not given) amounted to 6.98 fold. In assay [7], this molecule yielded an IC50, Activin SMAD RGA of 210 pM and an IC50, Myostatin SMAD RGA of 270 pM.

B2: Antibody Hasaschlegel (antibody, V domains shown)
VH: B1 VH with P53A
VL: B1 VL with N33D, Y51H, A97S
notes: full-length IgG
As for B2, the Kd with human ActRIIA [2] was determined as 18 pM. This molecule displayed a Kd in the assay with human ActRIIB [3] of 13 pM. Besides, in assay [6], the IC50, Activin SMAD RGA came to 722 pM; the IC50, Myostatin SMAD RGA amounted to 977 pM; the IC90, Activin SMAD RGA is 5560 pM; the IC90, Myostatin SMAD RGA worked out at 6590 pM.

B3: Antibody Bäratatza (antibody, V domains shown)
VH: B1 VH with P53A, G99S
VL: B1 VL with R56Q, E57Q, A97S
notes: full-length IgG
Regarding B3, in the assay with human ActRIIA [8], the “Fold Difference to bimagrumab” value was found to be 49.5 fold and the affinity, expressed as Kd, was 23 pM. Besides, the Kd in the assay with human ActRIIA [2] was 23 pM. Further, binding in the assay with human ActRIIB [3] was put at a Kd of 5 pM. In [6], this molecule returned an IC50, Activin SMAD RGA of 138 pM; an IC50, Myostatin SMAD RGA of 53.7 pM; an IC90, Activin SMAD RGA of 2140 pM; an IC90, Myostatin SMAD RGA of 491 pM. In [9], this molecule registered an IC50 [nM] (assay not given) of 0.105 nM, an IC50 fold difference to bimagrumab (assay not given) of 2.8 fold, an IC90 [nM] (assay not given) of 2.77 nM and an IC90 fold difference to bimagrumab (assay not given) of 2.4 fold.

B4: Antibody Springerle (antibody, V domains shown)
VH: B1 VH
VL: B1 VL with A97S, Y99R
notes: full-length IgG
For the molecule B4, in the assay with human ActRIIA [1], the “Fold Difference to bimagrumab” value is 7.3 fold and the Kd was 27 pM. The Kd with human ActRIIA [2] turned out to be 27 pM. In assay [6], this molecule had an IC50, Activin SMAD RGA of 94 pM; an IC50 [nM] (assay not given) of 0.0946 nM; an IC50 fold difference to bimagrumab (assay not given) of 5.46 fold; an IC90, Activin SMAD RGA of 1380 pM. In assay [6], this molecule returned an IC90 [nM] (assay not given) of 1.5 nM and an IC90 fold difference to bimagrumab (assay not given) of 5.4 fold.

B5: Antibody Dürrfloischeggla (antibody, V domains shown)
VH: B1 VH with P53A, T74V
VL: B1 VL with Y34V, Y51S, A97K
notes: full-length IgG
In the assay with human ActRIIA [2], B5 gave a Kd of 33 pM. Moreover, the affinity with human ActRIIB [3], expressed as Kd, was 9 pM. Further, in [6], the IC50, Activin SMAD RGA was found to be 423 pM; the IC50, Myostatin SMAD RGA is 679 pM; the IC90, Activin SMAD RGA was 4860 pM; the IC90, Myostatin SMAD RGA was 6090 pM.

B6: Antibody Ochsauga (antibody, V domains shown)
VH: B1 VH with P53A, Y104V
VL: B1 VL with V29I, A97S
notes: full-length IgG
Take B6: the Kd with human ActRIIA [2] amounted to 16 pM. Besides, binding with human ActRIIB [3] was put at a Kd of 6 pM. In assay [6], the IC50, Activin SMAD RGA came out at 238 pM; the IC50, Myostatin SMAD RGA amounted to 327 pM; the IC90, Activin SMAD RGA stood at 3150 pM; the IC90, Myostatin SMAD RGA was found to be 2210 pM.

B7: Antibody Floischbrühsupp (antibody, V domains shown)
VH: B1 VH with P53A
VL: B1 VL with Y32F, Y51K
notes: full-length IgG
The molecule B7 came in with a Kd with human ActRIIA [2] of 23 pM. Further, the Kd in the assay with human ActRIIB [3] amounted to 10 pM. In [6], this molecule yielded an IC50, Activin SMAD RGA of 324 pM; an IC50, Myostatin SMAD RGA of 394 pM; an IC90, Activin SMAD RGA of 4690 pM; an IC90, Myostatin SMAD RGA of 2620 pM.

B8: Soidawürstle, Human IgG1-PALALA (antibody, V domains shown)
VH: B1 VH with K12R, A16S, M70I, R72A, I76T, R85S, D89E
VL: B1 VL with A8R, I18V, Y34R, S61P, N62D, A97R
notes: human IgG1 with PA-LALA (L234A/L235A/P329A), EU numbering
As for B8, the Kd with human ActRIIA [10] came out at 25 pM; with human ActRIIB [11], 6 pM.

B9: Schwardamaga, Mouse IgG2a-PALALA (antibody, V domains shown)
VH: B1 VH with A16S, P53A, M70I, R72A, I76T, R85S, D89E
VL: B1 VL with A8R, I18V, Y32A, L48P, K55R, E57P, S61P, N62D, A97K
notes: mouse IgG2a constant region with PALALA
As to B9, the Kd came out at 39 pM with human ActRIIA [10] and 16 pM with human ActRIIB [11].

B10: Schwardamaga, Human IgG1-PALALA (antibody, V domains shown)
VH: B1 VH with A16S, P53A, M70I, R72A, I76T, R85S, D89E
VL: B1 VL with A8R, I18V, Y32A, L48P, K55R, E57P, S61P, N62D, A97K
notes: as for B8
With B10, the values for the Kd with human ActRIIA [10] and in the assay with human ActRIIB [11] were 36 pM and 11 pM, respectively.

B11: Antibody Pfitzauf (antibody, V domains shown)
VH: B1 VH
VL: B1 VL with Y32G, A97K
notes: full-length IgG
Molecule B11 returned a Kd in the assay with human ActRIIA [2] of 52 pM. Further, the Kd with human ActRIIB [3] stood at 8 pM. In assay [6], this molecule had an IC50, Activin SMAD RGA of 230 pM; an IC50, Myostatin SMAD RGA of 98.4 pM; an IC90, Activin SMAD RGA of 3030 pM; an IC90, Myostatin SMAD RGA of 1350 pM.

B12: Ochsamaulsalat Fab (Fab, V domains shown)
VH: B1 VH with P53A
VL: B1 VL with Y32R, A97D
notes: Fab
In the case of B12, in the assay with human ActRIIA [4], binding was put at a Kd of 55 pM. The molecule further had a Kd in the assay with human ActRIIB [5] of 62 pM. Besides, in assay [7], the IC50, Activin SMAD RGA was determined as 1500 pM and the IC50, Myostatin SMAD RGA was found to be 2320 pM.

B13: Bebballesgmias Fab (Fab, V domains shown)
VH: B1 VH with A16S, T28K, M70I, R72A, I76T, R85S, D89E
VL: B1 VL with A8R, I18V, E57P, S58R, S61P, N62D, A97S
notes: Fab
As for B13, the Kd with human ActRIIA [12] turned out to be 285 pM; with human ActRIIA [13], 285 pM; in the assay with human ActRIIB [14] it was 25.1 pM.

B14: Soidawürstle, Mouse IgG2a-PALALA (antibody, V domains shown)
VH: B1 VH with K12R, A16S, M70I, R72A, I76T, R85S, D89E
VL: B1 VL with A8R, I18V, Y34R, S61P, N62D, A97R
notes: as for B9
On to B14, for which the results for the Kd with human ActRIIA [10] and in the assay with human ActRIIB [11] were 27 pM and 3 pM, respectively.

B15: Soidawürstle, Human IgG1-PALALA-YTE (antibody, V domains shown)
VH: B1 VH with K12R, A16S, M70I, R72A, I76T, R85S, D89E
VL: B1 VL with A8R, I18V, Y34R, S61P, N62D, A97R
notes: human IgG1 with PA-LALA (L234A/L235A/P329A) and YTE (M252Y/S254T/T256E), EU numbering
Turning to B15, the Kd was 34 pM in the assay with human ActRIIA [10] and 5 pM with human ActRIIB [11].

B16: Schwardamaga, Human IgG1-PALALA-YTE (antibody, V domains shown)
VH: B1 VH with A16S, P53A, M70I, R72A, I76T, R85S, D89E
VL: B1 VL with A8R, I18V, Y32A, L48P, K55R, E57P, S61P, N62D, A97K
notes: as for B15
Turning to B16, the Kd with human ActRIIA [10] is 40 pM; with human ActRIIB [11], 13 pM.

B17: Bäradreck Fab (Fab, V domains shown)
VH: B1 VH with A16S, M70I, R72A, I76T, R85S, D89E
VL: B1 VL with A8R, I18V, E57P, S61P, N62D, A97S
notes: Fab
Take B17: the Kd came to 655 pM with human ActRIIA [12], 1.4 pM with human ActRIIB [15], 655 pM in the assay with human ActRIIA [13] and 56.3 pM with human ActRIIB [14].

(Values after patent publication US20250243286A1 (SIXPEAKS BIO, published 2025).)
